In publication PMC8776337, “Peptides Derived from Vascular Endothelial Growth Factor B Show Potent Binding to Neuropilin‐1” (Chembiochem, 2021):
No end group written: not given here.

B3: b1 domain of neuropilin‐1 (NRP1‐b1) (domain or fragment, human)
chain: FKCMEALGMESGEIHSDQITASSQYSTNWSAERSRLNYPENGWTPGEDSYREWIQVDLGLLRFVTAVGTQGAISKETKKKYYVKTYKIDVSSNGEDWITIKEGNKPVLFQGNTNPTDVVVAVFPKPLITRFVRIKPATWETGISMRFEVYGCKIT
notes: neuropilin-1, human, b1 domain; also called NRP1‐b1 domain; NRP1 b1 domain; source: E. coli Rosetta (DE3), purified (HisTrap, TEV cleavage, Superdex 75, SP FF ion exchange)

Columns and labels:
[1] = biological target: T1, NRP1‐b1 binding to VEGF‐B167 (Homo sapiens, UniProt O14786); assay: SPR EG01377 competition assay, NRP1-b1 binding to immobilised VEGF-B167; settings: NRP1-b1 5 μM, EG01377 6.25 to 50 μM, 60 s
T1 construct: poly-histidine (TEV-cleavable) (cleaved yes); made in house; host or cells: E. coli Rosetta (DE3) (NRP1-b1 only)
T1 sequence (O14786 275-424 limits assumed): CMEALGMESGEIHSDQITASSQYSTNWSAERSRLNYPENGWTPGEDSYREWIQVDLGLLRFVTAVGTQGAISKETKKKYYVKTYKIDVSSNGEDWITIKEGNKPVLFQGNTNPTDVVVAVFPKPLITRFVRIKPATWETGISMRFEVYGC
From the text: (§1) We have previously reported the use of SPR to characterise the interaction between the immobilized b1 domain of NRP1 (NRP1‐b1) and VEGF‐A‐derived peptides,[23] arginine analogues,[26] and small molecules.[27, 28] When we attempted to measure the binding affinity of VEGF‐B isoforms to immobilized NRP1‐b1 we observed non‐saturable binding responses. Increasing concentrations of VEGF‐B over immobilised NRP1 led to response units (RU) higher than the theoretical maximum for a 1 : 1 interaction. The shape of the curves remained consistent at low and high concentration and was not typical of sample precipitation (fuzzy heterogeneous curves, commonly observed only at higher concentrations). […] We consider that the observations are consistent with oligomerization as a form of non‐specific binding. […] To circumvent this, we immobilized VEGF‐B167 and VEGF‐A165 (Figure 2) onto a sensor chip and measured the binding of NRP1‐b1 domain in solution. Using this method, the binding affinity of NRP1‐b1 to immobilized VEGF‐A165 was 100‐fold lower than previously observed when the interaction was measured in reverse experimental configuration.[23] […] We then sought to investigate if binding could be blocked by a known inhibitor of the VEGF‐A interaction with NRP1‐b1. […]

VEGFs = assay: SPR direct binding of EG01377 to immobilised VEGFs; parameters: species or system human; settings: immobilised VEGF-A165 and VEGF-B167
From the text: as §1

[2] = biological target: T2, NRP1‐b1 binding to VEGF‐A165 (Homo sapiens, UniProt O14786); assay: SPR EG01377 competition assay, NRP1-b1 binding to immobilised VEGF-A165; settings: NRP1-b1 5 μM, EG01377 1.25 to 10 μM, 60 s
T2 construct: poly-histidine (TEV-cleavable) (cleaved yes); made in house; host or cells: E. coli Rosetta (DE3) (NRP1-b1 only)
T2 sequence (O14786 275-424 limits assumed): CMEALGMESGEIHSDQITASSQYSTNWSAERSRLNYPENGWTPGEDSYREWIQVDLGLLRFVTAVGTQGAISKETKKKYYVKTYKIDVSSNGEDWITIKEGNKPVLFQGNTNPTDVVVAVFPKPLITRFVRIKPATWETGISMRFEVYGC
From the text: as §1

NRP1‐b1 = biological target: T3, NRP1‐b1 (Homo sapiens, UniProt O14786); assay: SPR binding of NRP1-b1 in solution to immobilised VEGFs; settings: VEGF immobilised on CM5 chip, NRP1-b1 0.25 to 64 μM in PBS, 60 s, steady-state, 1:1 interaction, 25 °C, read-out: KD of NRP1‐b1 for immobilized VEGF
T3 construct: the immobilized b1 domain of NRP1 (NRP1‐b1); poly-histidine (TEV-cleavable) (cleaved yes); made in house; host or cells: E. coli Rosetta (DE3)
T3 sequence (O14786 275-424 limits assumed): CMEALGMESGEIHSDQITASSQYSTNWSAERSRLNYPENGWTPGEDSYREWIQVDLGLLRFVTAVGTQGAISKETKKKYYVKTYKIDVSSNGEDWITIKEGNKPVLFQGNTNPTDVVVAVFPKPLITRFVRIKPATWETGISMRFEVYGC
From the text: We have previously reported the use of SPR to characterise the interaction between the immobilized b1 domain of NRP1 (NRP1‐b1) and VEGF‐A‐derived peptides,[23] arginine analogues,[26] and small molecules.[27, 28] When we attempted to measure the binding affinity of VEGF‐B isoforms to immobilized NRP1‐b1 we observed non‐saturable binding responses. Increasing concentrations of VEGF‐B over immobilised NRP1 led to response units (RU) higher than the theoretical maximum for a 1 : 1 interaction. The shape of the curves remained consistent at low and high concentration and was not typical of sample precipitation (fuzzy heterogeneous curves, commonly observed only at higher concentrations). […] We consider that the observations are consistent with oligomerization as a form of non‐specific binding. […] To circumvent this, we immobilized VEGF‐B167 and VEGF‐A165 (Figure 2) onto a sensor chip and measured the binding of NRP1‐b1 domain in solution. Using this method, the binding affinity of NRP1‐b1 to immobilized VEGF‐A165 was 100‐fold lower than previously observed when the interaction was measured in reverse experimental configuration.[23] […]
Binding of NRP1‐b1 to VEGFs: Dose responses were obtained by injecting NRP1‐b1 in PBS over the immobilized VEGFs for 60 s, using two‐fold dilutions from 64 to 0.25 μM. Steady‐state binding affinities were calculated assuming a 1 : 1 interaction.

[3] = biological target: B3; assay: SPR; NRP1-b1 immobilised on a CM5 chip by random amine coupling; peptides injected for 60 s, 120 or 180 s dissociation; 25 °C; regeneration with 1 M NaCl; kinetic fit, 1:1 model (MGC0122, MGC0123, MGC0124) or two-state model (MGC0171, MGC0172, MGC0173, MGC0174); settings: both partners purified
VEGF‐A165 = biological target: T4, VEGF‐A165 (human, UniProt P15692-4 1-191); assay: SPR; VEGF-A165 and VEGF-B167 immobilised on a CM5 chip by random amine coupling; NRP1-b1 in PBS injected for 60 s, two-fold dilutions from 64 to 0.25 μM; 25 °C; steady-state affinity assuming a 1:1 interaction; settings: both partners purified
T4 construct: vascular endothelial growth factor A, isoform VEGF-A165, human

VEGF‐B167 = biological target: T5, VEGF‐B167 (human, UniProt P49765-2 22-188); assay: as above; settings: both partners purified
T5 construct: vascular endothelial growth factor B, isoform VEGF-B167, human
T5 sequence (looked up): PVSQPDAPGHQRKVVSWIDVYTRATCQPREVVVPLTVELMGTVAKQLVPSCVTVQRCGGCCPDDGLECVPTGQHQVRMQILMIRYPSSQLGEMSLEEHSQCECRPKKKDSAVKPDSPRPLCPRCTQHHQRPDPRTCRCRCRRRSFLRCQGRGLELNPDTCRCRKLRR

T4 sequence (P15692 other isoform, or with tags, fused parts or gaps): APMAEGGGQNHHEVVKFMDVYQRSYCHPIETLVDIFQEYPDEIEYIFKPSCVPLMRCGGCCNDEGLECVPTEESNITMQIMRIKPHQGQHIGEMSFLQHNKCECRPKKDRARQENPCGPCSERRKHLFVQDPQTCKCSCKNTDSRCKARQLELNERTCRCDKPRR

Molecule: NCc1ccc(-c2cc3c(c(S(=O)(=O)Nc4ccsc4C(=O)N[C@@H](CCCN=C(N)N)C(=O)O)c2)OCC3)cc1 [EG01377]
- Effect on binding of NRP1‐b1 to immobilised VEGF‐B167 [1]: reduced the binding
- Binding to VEGFs (VEGFs): No binding was observed
- Effect on binding of NRP1‐b1 to immobilised VEGF‐A165 [2]: reduced the binding

Molecule: VEGF‐A165: Vascular endothelial growth factor A isoform 165, immobilised on the sensor chip
- Kd (NRP1‐b1): 9 µM

B1: MGC0124 (peptide)
chain: SCKNTDSRCKARQLELNERTCRCDKPRR
modifications: disulfide (positions not given here); not fully specified (N-terminus); also: cyclised by disulphide, Cys pairing not given here
- Kd [3]: 3.33 ± 0.1 µM

B2: VEGF‐B167: Vascular endothelial growth factor B isoform 167, immobilised on the sensor chip (protein)
chain: PVSQPDAPGHQRKVVSWIDVYTRATCQPREVVVPLTVELMGTVAKQLVPSCVTVQRCGGCCPDDGLECVPTGQHQVRMQILMIRYPSSQLGEMSLEEHSQCECRPKKKDSAVKPDSPRPLCPRCTQHHQRPDPRTCRCRCRRRSFLRCQGRGLELNPDTCRCRKLRR
- Kd (NRP1‐b1): 36 µM

Molecule: B3
- Kd (VEGF‐A165): 9 µM
- Kd (VEGF‐B167): 36 µM
